Data reported in PMC10659578, “Mechanism of stepwise electron transfer in six-transmembrane epithelial antigen of the prostate (STEAP) 1 and 2” (eLife, 2023).

Target: the molecule itself
Test: SEC; purified hSTEAP2 on an SRT-3C SEC-300 column in 20 mM HEPES, 150 mM NaCl, 0.01% LMNG; single peak

B1: Human six-transmembrane epithelial antigen of the prostate 2 (STEAP2) (natural protein)
chain: MESISMMGSPKSLSETFLPNGINGIKDARKVTVGVIGSGDFAKSLTIRLIRCGYHVVIGSRNPKFASEFFPHVVDVTHHEDALTKTNIIFVAIHREHYTSLWDLRHLLVGKILIDVSNNMRINQYPESNAEYLASLFPDSLIVKGFNVVSAWALQLGPKDASRQVYICSNNIQARQQVIELARQLNFIPIDLGSLSSAREIENLPLRLFTLWRGPVVVAISLATFFFLYSFVRDVIHPYARNQQSDFYKIPIEIVNKTLPIVAITLLSLVYLAGLLAAAYQLYYGTKYRRFPPWLETWLQCRKQLGLLSFFFAMVHVAYSLCLPMRRSERYLFLNMAYQQVHANIENSWNEEEVWRIEMYISFGIMSLGLLSLLAVTSIPSVSNALNWREFSFIQSTLGYVALLISTFHVLIYGWKRAFEEEYYRFYTPPNFVLALVLPSIVILGKIILFLPCISRKLKRIKKGWEKSQFLEEGMGGTIPHVSPERVTVM
notes: N-terminal residues 1-27, residues 332-353 and C-terminal residues 470-490 are unresolved in the map, which implies a 490-residue chain; Homotrimer with heme; The cryo-EM sample was in GDN with FAD and NADP+; Residues of the TEV site may remain at the C-terminus after cleavage; also called hSTEAP2; not shown: His6, C-terminal, cleaved
stoichiometry N: 3
